Test results: patent WO2012074097A1 (dated 2012)

Columns and labels:
[1] = biological target: T1, human CD33 on cells (human CD33-expressing CHO/DG44 cell line; CD33-positive cell lines THP-1, NB-4) (human, UniProt P20138 18-364); assay: FMAT on human CD33-expressing CHO/DG44 cells, hybridoma supernatant
T1 construct: The same entry is used here for the endogenous CD33 of THP-1, NB-4 and other leukemia lines; also called hCD33; CD33 transfectant

[2] = biological target: T2, Recombinant human Siglec-3 (CD33)/Fc Chimera (R&D Systems, catalog number 1137-SL) (human, UniProt P20138 18-259); assay: SPR (Biacore T-100), antibody captured on anti-mouse IgG, CD33-Fc as analyte
T2 construct: Bought product; also called recombinant human CD33-Fc; not shown: Fc part of the bought fusion protein; not described
T2 sequence (P20138 18-259 limits assumed, change not shown): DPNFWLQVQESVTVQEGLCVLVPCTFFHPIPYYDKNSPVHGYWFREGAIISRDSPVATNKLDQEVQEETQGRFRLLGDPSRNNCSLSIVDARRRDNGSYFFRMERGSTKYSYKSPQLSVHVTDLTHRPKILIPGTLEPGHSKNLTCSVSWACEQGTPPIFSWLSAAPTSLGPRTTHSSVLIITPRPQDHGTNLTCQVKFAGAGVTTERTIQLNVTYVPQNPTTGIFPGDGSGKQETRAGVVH

[3] = biological target: T1, human CD33 on cells (human …); assay: flow cytometry on THP-1 cells
[4] = biological target: T3, histidine-tagged soluble human CD33 (hCD33-His) (human, UniProt P20138 18-259); assay: SPR (Biacore T-100), antibody captured on anti-human IgG, hCD33-His as analyte
T3 construct: Human CD33 extracellular region with six histidines at the C-terminus, made in CHO/DG44 cells
T3 sequence (P20138 other isoform, or with tags, fused parts or gaps limits assumed): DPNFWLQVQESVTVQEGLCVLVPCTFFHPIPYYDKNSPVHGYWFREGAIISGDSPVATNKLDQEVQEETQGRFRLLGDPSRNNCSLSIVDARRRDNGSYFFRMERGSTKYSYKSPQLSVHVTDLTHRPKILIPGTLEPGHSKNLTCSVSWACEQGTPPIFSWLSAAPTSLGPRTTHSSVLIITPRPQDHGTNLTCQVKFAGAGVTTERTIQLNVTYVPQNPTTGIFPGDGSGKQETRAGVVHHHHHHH

[5] = biological target: T2, Recombinant human Siglec-3 (CD33)/Fc …; assay: binding ELISA, CD33-Fc on the plate

T1 sequence (P20138 other isoform, or with tags, fused parts or gaps limits assumed): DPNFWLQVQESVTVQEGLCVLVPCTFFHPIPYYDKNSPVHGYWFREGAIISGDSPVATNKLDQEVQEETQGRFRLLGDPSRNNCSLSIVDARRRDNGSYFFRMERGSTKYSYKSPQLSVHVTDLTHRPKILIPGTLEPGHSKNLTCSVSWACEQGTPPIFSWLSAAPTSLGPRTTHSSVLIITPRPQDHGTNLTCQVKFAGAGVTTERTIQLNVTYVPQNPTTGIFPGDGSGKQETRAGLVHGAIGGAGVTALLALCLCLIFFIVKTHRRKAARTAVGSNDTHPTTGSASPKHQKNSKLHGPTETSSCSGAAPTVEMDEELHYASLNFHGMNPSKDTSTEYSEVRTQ

| binding result [1] | binding result [2] | binding result [4] | Binder | also measured |
| --- | --- | --- | --- | --- |
| binds | – | – | anti-CD33 monoclonal antibody KM4072 (antibody, V domains shown, Hybridoma antibody from rat or mouse) VH: QVQLQQSGAELVKPGASVKMSCKASGYTFTTYPIEWMKQNHGKSLEWIGNFHPYNDDTEYNEKFKGKATLTVEKSSSTVYLELSRLTSDDSAVYYCARGYYYAMDYWGQGTSVTVSS VL: DAVMTQTPLSLPVSLGDQASISCRSSQSLEDSNGNTYLNWYLQKPGQSPQLLIYRVSNRFSGVLDRFSGSGSGTDFTLKISRVEAEDLGVYFCLQLTHVPWTFGGGTKLEIK | – |
| binds | binds | – | anti-CD33 monoclonal antibody KM4073 (antibody, V domains shown, Hybridoma antibody from rat or mouse) VH: QVKLLQSGAALVKPGASVKMSCKVSGYTFTDYWVNWVKQSHGKTLEWIGEIYPNSGATNFNEKFKDKATLTVDRSTSTAYLEFSRLTSEDSAIYYCSLGPYWGQGVMVTVSS VL: DVVLTQTPPTLSATIGQSVSISCRSSQSLLDSDGQTYLNWFLQRPGQSPQLLIYSVSNLESGVPNRFSGSGSETDFTLKISGVEAEDLGLYYCMQATHAPLTFGSGTNLEIK | – |
| – | binds | – | anti-CD33 monoclonal antibody KM4075 (antibody, V domains shown, Hybridoma antibody from rat or mouse) VH: QLQESGPGLVKPSQSLSLTCSVTGYTITSGSDWSWIRKFPGNKMEWMGYISYSGNTNYNPSLKSRISITRDTSKNQFFLHLNSVTTADTATYYCTGKGWGQGVMVTVSS VL: DVVLTQTPVSLSVTLGDQASISCRSSQSLEYSDGYTYLEWYLQKPGHSPQLLIYGVSNRFSGVPDRFIGSGSGTDFTLRISRVEPEDLGVYYCFQATHDPYTFGAGTKLEL | binding result [3]: binds |
| binds | binds | – | anti-CD33 monoclonal antibody KM4074 (antibody, V domains shown, Hybridoma antibody from rat or mouse) VH: QLQETGPGLVKPSQSLSLTCSVTGYTITSGYEWTWIRKFPGNRMEWMGYINSSGSTDYNPSLKSRVSITRDTSKNQFFLQLNSVTTEDTATYFCTRWDRWGPGVMVTVSS VL: DVVLTQTLVAQPVRLGDQASISCRSSQSLVHSDGHTYLEWYLQKPGQSPQLLIYEISNRFSGVPDRFSGSGSGSDFTLKISRVEPEDLGLYYCFQGTHDLPTFGGGTKLELK | – |
| – | – | binds | anti-CD33 chimeric antibody KM4054 (antibody, V domains shown, Expressed in FUT8 knockout CHO cells, so no core fucose) VH: QLQETGPGLVKPSQSLSLTCSVTGYTITSGYEWTWIRKFPGNRMEWMGYINSSGSTDYNPSLKSRVSITRDTSKNQFFLQLNSVTTEDTATYFCTRWDRWGPGVMVTVSS VL: DVVLTQTLVAQPVRLGDQASISCRSSQSLVHSDGHTYLEWYLQKPGQSPQLLIYEISNRFSGVPDRFSGSGSGSDFTLKISRVEPEDLGLYYCFQGTHDLPTFGGGTKLELK | binding result [5]: binds; binding result [3]: binds |
| – | – | binds | modified CD33 chimeric antibody ver.1 (antibody, V domains shown) VH: QLQETGPGLVKPSQSLSLTCSVTGYTITSGYEWTWIRKFPGNRMEWMGYIYSSGSTDYNPSLKSRVSITRDTSKNQFFLQLNSVTTEDTATYFCTRWDRWGPGVMVTVSS VL: DVVLTQTLVAQPVRLGDQASISCRSSQSLVHSDGHTYLEWYLQKPGQSPQLLIYEISNRFSGVPDRFSGSGSGSDFTLKISRVEPEDLGLYYCFQGTHDLPTFGGGTKLELK | – |
| – | – | binds | modified CD33 chimeric antibody ver.3 (antibody, V domains shown) VH: QLQETGPGLVKPSQSLSLTCSVTGYTITSGYEWTWIRKFPGNRMEWMGYIQSSGSTDYNPSLKSRVSITRDTSKNQFFLQLNSVTTEDTATYFCTRWDRWGPGVMVTVSS VL: DVVLTQTLVAQPVRLGDQASISCRSSQSLVHSDGHTYLEWYLQKPGQSPQLLIYEISNRFSGVPDRFSGSGSGSDFTLKISRVEPEDLGLYYCFQGTHDLPTFGGGTKLELK | – |
| – | – | binds | modified CD33 chimeric antibody ver.4 (KM4084) (antibody, V domains shown) VH: QLQETGPGLVKPSQSLSLTCSVTGYTITSGYEWTWIRKFPGNRMEWMGYINSAGSTDYNPSLKSRVSITRDTSKNQFFLQLNSVTTEDTATYFCTRWDRWGPGVMVTVSS VL: DVVLTQTLVAQPVRLGDQASISCRSSQSLVHSDGHTYLEWYLQKPGQSPQLLIYEISNRFSGVPDRFSGSGSGSDFTLKISRVEPEDLGLYYCFQGTHDLPTFGGGTKLELK | – |
| – | – | binds | modified CD33 chimeric antibody ver.2 (antibody, V domains shown) VH: QLQETGPGLVKPSQSLSLTCSVTGYTITSGYEWTWIRKFPGNRMEWMGYISSSGSTDYNPSLKSRVSITRDTSKNQFFLQLNSVTTEDTATYFCTRWDRWGPGVMVTVSS VL: DVVLTQTLVAQPVRLGDQASISCRSSQSLVHSDGHTYLEWYLQKPGQSPQLLIYEISNRFSGVPDRFSGSGSGSDFTLKISRVEPEDLGLYYCFQGTHDLPTFGGGTKLELK | – |
| – | – | binds | modified CD33 chimeric antibody ver.5 (antibody, V domains shown) VH: QLQETGPGLVKPSQSLSLTCSVTGYTITSGYEWTWIRKFPGNRMEWMGYINSGGSTDYNPSLKSRVSITRDTSKNQFFLQLNSVTTEDTATYFCTRWDRWGPGVMVTVSS VL: DVVLTQTLVAQPVRLGDQASISCRSSQSLVHSDGHTYLEWYLQKPGQSPQLLIYEISNRFSGVPDRFSGSGSGSDFTLKISRVEPEDLGLYYCFQGTHDLPTFGGGTKLELK | – |
| binds | binds | – | anti-CD33 monoclonal antibody KM4071 (antibody, V domains shown, Hybridoma antibody from rat or mouse) VH: QIQLVQSGPELKKPEETVKISCKASDYTFTDYSIHWVKQAPGKGLKWMGWINTETGETTNADDLKGRFAFSVETSASTAYLQINNLKNEDTATYFCARYRYDASYGMDYWGQGTSVTVSS VL: STVLTQSPKSMSMSVGERVTLSCKASENVGTYVSWYQQKPEQSPELLIYGSSNRSTGVPDRFTGSGSATDFTLTISSVQAEDLADYHCGQSYSYPPTFGGGTRLEIK | – |
